From paper doi:10.1101/2025.05.07.652675
Where “and” joins values, the source holds several entries; their conditions need not be identical. Identical values can stand only once.

Target: ZapC^F30D and ZapC^K94D
Test: BLI

FtsZ (wild type, untagged), sequence (P0A9A6 whole entry): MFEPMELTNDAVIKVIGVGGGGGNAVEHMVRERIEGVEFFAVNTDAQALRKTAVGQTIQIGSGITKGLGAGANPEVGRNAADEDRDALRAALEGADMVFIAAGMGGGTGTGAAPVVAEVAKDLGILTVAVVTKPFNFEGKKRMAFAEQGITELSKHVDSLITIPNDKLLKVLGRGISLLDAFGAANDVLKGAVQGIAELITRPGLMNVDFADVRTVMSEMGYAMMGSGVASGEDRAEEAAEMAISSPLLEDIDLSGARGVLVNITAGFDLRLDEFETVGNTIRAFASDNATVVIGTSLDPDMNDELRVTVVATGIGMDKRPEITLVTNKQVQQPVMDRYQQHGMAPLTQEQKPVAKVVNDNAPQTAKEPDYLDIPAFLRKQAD

binding affinity relative to wild-type ZapC (times lower): 5 times and 7 times
Substance: FtsZ (wild type, untagged) (from UniProt P0A9A6 1-383) (natural protein)
